B1: PR006239 (antibody, human IgG1, kappa)
heavy: QVQLVQSGAEVKKPGASVKVSCKASGYTFAGYYMYWVRQAPGQGLEWMGWINPDSGAPTYAQKFQGRVTMTRDTSISTAYMELSRLRSDDTAVYYCAREKIYYGSGNYYPSFDYWGQGTLVTVSSASTKGPSVFPLAPSSKSTSGGTAALGCLVKDYFPEPVTVSWNSGALTSGVHTFPAVLQSSGLYSLSSVVTVPSSSLGTQTYICNVNHKPSNTKVDKKVEPKSCDKTHTCPPCPAPEAAGAPSVFLFPPKPKDTLMISRTPEVTCVVVDVSHEDPEVKFNWYVDGVEVHNAKTKPREEQYNSTYRVVSVLTVLHQDWLNGKEYKCKVSNKALPAPIEKTISKAKGQPREPQVYTLPPSREEMTKNQVSLTCLVKGFYPSDIAVEWESNGQPENNYKTTPPVLDSDGSFFLYSKLTVDKSRWQQGNVFSCSVMHEALHNHYTQKSLSLSPGK
light: DIQLTQSPSFLSASVGDRVTITCRASQGISSYLAWYQQKPGKAPKLLIYAASTLQSGVPSRFSGSGSGTEFTLTISSLQPEDFATYYCQQLNSYPWTFGQGTKVEIKRTVAAPSVFIFPPSDEQLKSGTASVVCLLNNFYPREAKVQWKVDNALQSGNSQESVTEQDSKDSTYSLSSTLTLSKADYEKHKVYACEVTHQGLSSPVTKSFNRGEC
notes: Variable regions of PR003379 on human IgG1 with L234A, L235A, G237A; no mutation in the variable region
B2: PR006499 (antibody, human IgG1, kappa, V domains shown)
VH: QVQLVQSGAEVKKPGASVKVSCKASGYTFAGYYMYWVRQAPGQGLEWMGWINPDSGAPTYAQKFQGRVTMTRDTSISTAYMELSRLRSDDTAVYYCAREKIYYGSGNYYPSFDYWGQGTLVTVSS
VL: DIQLTQSPSFLSASVGDRVTITCRASQGISSYLAWYQQKPGKAPKLLIYAASTLQSGVPSRFSGSGSGTEFTLTISSLQPEDFATYYCQQLWSYPWTFGQGTKVEIKR
notes: PR003379 variant L:N92W; human IgG1 L234A, L235A, G237A
B3: PR006497 (antibody, human IgG1, kappa, V domains shown)
VH: QVQLVQSGAEVKKPGASVKVSCKASGYTFAGYYMYWVRQAPGQGLEWMGWINPDSGAPTYAQKFQGRVTMTRDTSISTAYMELSRLRSDDTAVYYCAREKIYYGSGNYYPSFDYWGQGTLVTVSS
VL: DIQLTQSPSFLSASVGDRVTITCRASQGISSYLAWYQQKPGKAPKLLIYAASTLQSGVPSRFSGSGSGTEFTLTISSLQPEDFATYYCQQLYSYPWTFGQGTKVEIKR
notes: PR003379 variant L:N92Y; human IgG1 L234A, L235A, G237A
B4: PR006495 (antibody, human IgG1, kappa, V domains shown)
VH: QVQLVQSGAEVKKPGASVKVSCKASGYTFAGYYMYWVRQAPGQGLEWMGWINPDSGAPTYAQKFQGRVTMTRDTSISTAYMELSRLRSDDTAVYYCAREKIYYGSGNYYPSFDYWGQGTLVTVSS
VL: DIQLTQSPSFLSASVGDRVTITCRASQGISSYLAWYQQKPGKAPKLLIYAASTLQSGVPSRFSGSGSGTEFTLTISSLQPEDFATYYCQQLASYPWTFGQGTKVEIKR
notes: PR003379 variant L:N92A; human IgG1 L234A, L235A, G237A
B5: PR006498 (antibody, human IgG1, kappa, V domains shown)
VH: QVQLVQSGAEVKKPGASVKVSCKASGYTFAGYYMYWVRQAPGQGLEWMGWINPDSGAPTYAQKFQGRVTMTRDTSISTAYMELSRLRSDDTAVYYCAREKIYYGSGNYYPSFDYWGQGTLVTVSS
VL: DIQLTQSPSFLSASVGDRVTITCRASQGISSYLAWYQQKPGKAPKLLIYAASTLQSGVPSRFSGSGSGTEFTLTISSLQPEDFATYYCQQLISYPWTFGQGTKVEIKR
notes: PR003379 variant L:N92I; human IgG1 L234A, L235A, G237A
B6: PR006496 (antibody, human IgG1, kappa, V domains shown)
VH: QVQLVQSGAEVKKPGASVKVSCKASGYTFAGYYMYWVRQAPGQGLEWMGWINPDSGAPTYAQKFQGRVTMTRDTSISTAYMELSRLRSDDTAVYYCAREKIYYGSGNYYPSFDYWGQGTLVTVSS
VL: DIQLTQSPSFLSASVGDRVTITCRASQGISSYLAWYQQKPGKAPKLLIYAASTLQSGVPSRFSGSGSGTEFTLTISSLQPEDFATYYCQQLFSYPWTFGQGTKVEIKR
notes: PR003379 variant L:N92F; human IgG1 L234A, L235A, G237A
B7: PR006500 (antibody, human IgG1, kappa, V domains shown)
VH: QVQLVQSGAEVKKPGASVKVSCKASGYTFAGYYMYWVRQAPGQGLEWMGWINPDSGAPTYAQKFQGRVTMTRDTSISTAYMELSRLRSDDTAVYYCAREKIYYGSGNYYPSFDYWGQGTLVTVSS
VL: DIQLTQSPSFLSASVGDRVTITCRASQGISSYLAWYQQKPGKAPKLLIYAASTLQSGVPSRFSGSGSGTEFTLTISSLQPEDFATYYCQQLMSYPWTFGQGTKVEIKR
notes: PR003379 variant L:N92M; human IgG1 L234A, L235A, G237A
B8: PR006502 (antibody, human IgG1, kappa, V domains shown)
VH: QVQLVQSGAEVKKPGASVKVSCKASGYTFAGYYMYWVRQAPGQGLEWMGWINPDSGAPTYAQKFQGRVTMTRDTSISTAYMELSRLRSDDTAVYYCAREKIYYGSGNYYPSFDYWGQGTLVTVSS
VL: DIQLTQSPSFLSASVGDRVTITCRASQGISSYLAWYQQKPGKAPKLLIYAASTLQSGVPSRFSGSGSGTEFTLTISSLQPEDFATYYCQQLDSYPWTFGQGTKVEIKR
notes: PR003379 variant L:N92D; human IgG1 L234A, L235A, G237A

Experiments:
[1] = target: T1, human CD40 on cells (human, UniProt P25942 21-277); experiment: FACS, Raji cells
T1 construct: whole, on cells; The cell line used is named in each row's assay; also called hCD40; TNFRSF5
From the text: (§1) Flow cytometry (FACS) was used to detect the binding ability of the CD40 antibody to cells, such as, CHO-K1/hCD40 highly expressing human CD40 (constructed by Beijing Kyinno Biotechnology), CHO-K1/cyCD40 highly expressing cynomolgus monkey CD40 (constructed by Beijing Kyinno Biotechnology) and lymphoma cell highly expressing human CD40, Raji (ATCC, #CCL-86). Specifically, the cells were digested and resuspended with complete medium (F-12K for CHO-K1 cells; and RPMI-1640 for Raji cells); and the cells were adjusted to a cell density of 1×10⁶ cells/mL. The cells were seeded in a 96-well V-bottom plate (Corning, #3894) at 100 μL/well, and the antigen binding protein to be tested at 2x final concentration was then added at 100 μL/well and mixed evenly, with the highest final concentration of the antigen binding protein of 300 nM, a total of 8 concentrations, and 5-fold concentration gradient dilution. hIgG (Crownbio, #C0002) was used as a negative control, and the positive control molecule was the molecule in Table 1-5. The cells were incubated at 4° C. for 1 hours in the dark. After the incubation, the cells were rinsed twice by adding pre-chilled PBS at 100 μL/well, and centrifuged at 500 g at 4° C. for 5 minutes, and the supernatant was discarded. Then, a fluorescent secondary antibody (goat anti-human IgG (H+L) secondary antibody, Alexa Fluor® 488 conjugate, Invitrogen, #A11013, 1:1000 dilution) was added at 100 µL/well, and the cells were incubated at 4° C. for 30 minutes in the dark. The cells were washed twice with pre-chilled PBS at 200 μL/well, and centrifuged at 500 g at 4° C. for 5 minutes, and the supernatant was discarded. Finally, the cells were resuspended in pre-chilled PBS at 200 μL/well. The fluorescence signal values were read using a BD FACS CANTOII flow cytometer or ACEA NovoCyte flow cytometer, and the data were processed and analyzed using FlowJo v10 software (FlowJo, LLC).
(§2) Data processing and graphical analysis were performed using GraphPad Prism 8 software. The binding curve of the antibody to the target cell and parameters, such as EC50 value were obtained by four-parameter nonlinear fitting.

[2] = target: T1, human CD40 on cells; experiment: cell-based or functional assay
[3] = target: T1, human CD40 on cells; experiment: FACS, CHO-K1/hCD40 cells
From the text: as §1, §2

[4] = target: T2, cynomolgus monkey CD40 on cells (cynomolgus monkey, UniProt G7PG38 21-278); experiment: FACS, CHO-K1/cyCD40 cells
T2 construct: also called cyCD40; CHO-K1/cyCD40
From the text: as §1, §2

T1 sequence (P25942 21-277): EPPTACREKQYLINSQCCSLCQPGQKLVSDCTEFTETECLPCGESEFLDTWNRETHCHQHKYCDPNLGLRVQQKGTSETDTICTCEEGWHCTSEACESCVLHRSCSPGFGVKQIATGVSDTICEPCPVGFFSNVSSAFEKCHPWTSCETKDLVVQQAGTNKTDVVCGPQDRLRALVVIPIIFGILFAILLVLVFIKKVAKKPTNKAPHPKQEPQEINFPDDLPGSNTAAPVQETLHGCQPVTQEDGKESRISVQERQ
T2 sequence (G7PG38 entry or part of it limits assumed): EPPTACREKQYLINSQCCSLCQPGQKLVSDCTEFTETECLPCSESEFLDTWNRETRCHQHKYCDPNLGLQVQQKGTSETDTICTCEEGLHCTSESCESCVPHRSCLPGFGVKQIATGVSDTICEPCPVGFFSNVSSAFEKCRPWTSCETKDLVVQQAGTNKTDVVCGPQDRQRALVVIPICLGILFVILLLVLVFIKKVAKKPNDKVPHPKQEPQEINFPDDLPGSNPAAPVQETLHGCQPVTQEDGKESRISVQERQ

Row | Binder | EC50 [1] | Maximum MFI [1] | EC50 (nM), crosslinked, HEK293-hCD40-NFkB reporter [2] | EC50 (nM), uncrosslinked, HEK293-hCD40-NFkB reporter [2] | Fold (EC50 in the absence of crosslinking/EC50 in the presence of crosslinking) [2] | Maximum fold (fold), crosslinked [2] | Maximum fold (fold), uncrosslinked [2] | EC50 [3] | Maximum MFI [3] | EC50 [4] | Maximum MFI [4]
1 | B1 | 0.332 nM | 9050 MFI | 0.098 nM | 0.173 nM | 1.77 fold | 5.76 fold | 4.58 fold | 6.67 nM | 88600 MFI | 4.41 nM | 51800 MFI
2 | B2 | 0.301 nM | 8980 MFI | 0.405 nM | 1.04 nM | 2.58 fold | 5.28 fold | 3.92 fold | 4.65 nM | 84200 MFI | 3.2 nM | 49800 MFI
3 | B3 | 0.252 nM | 9200 MFI | 0.158 nM | 0.479 nM | 3.03 fold | 4.77 fold | 4.61 fold | 5.09 nM | 92300 MFI | 3.54 nM | 51700 MFI
4 | B4 | 0.356 nM | 8870 MFI | 0.109 nM | 0.905 nM | 8.28 fold | 5.54 fold | 4.92 fold | 4.9 nM | 79400 MFI | 4.41 nM | 48000 MFI
5 | B5 | 0.344 nM | 8980 MFI | 0.196 nM | 0.462 nM | 2.36 fold | 5.53 fold | 4.4 fold | 4.97 nM | 77700 MFI | 4.04 nM | 47300 MFI
6 | B6 | 0.277 nM | 9300 MFI | 0.217 nM | 0.43 nM | 1.98 fold | 5.03 fold | 4.43 fold | 4.8 nM | 88200 MFI | 3.5 nM | 49700 MFI
7 | B7 | 0.351 nM | 8980 MFI | 0.169 nM | 0.301 nM | 1.78 fold | 5.55 fold | 4.33 fold | 5.01 nM | 85900 MFI | 4.4 nM | 48500 MFI
8 | B8 | 0.287 nM | 9040 MFI | 0.17 nM | 0.321 nM | 1.88 fold | 4.95 fold | 4.63 fold | 4.55 nM | 88500 MFI | 3.96 nM | 47700 MFI
